Reference: patent US20060045884A1, “Vaccines for autoimmune and infectious disease” (Board of Regents, priority 2004, published 2006)

Target: HLA-A2.1 (HLA-A*0201) with β2-microglobulin on the surface of T2 cells (human)

KLGEFYNQMM (modifications not checked) [Influenza B nucleoprotein peptide (aa 85-94), P04665 85-94] showed a Median Channel of Fluorescence of HLA-A2 Expression on T2 (median channel of fluorescence) of 194.
